The values below come from article PMC2279300.

Assay [1] addresses biotinylated oligopeptide spanning one repeat unit of the TARP phosphodomain, second tyrosine phosphorylated (pY2) (Chlamydia trachomatis serovar L2).
For assay [2], the target named is biotinylated oligopeptide spanning one repeat unit of the TARP phosphodomain, first tyrosine phosphorylated (pY1) (Chlamydia trachomatis serovar L2).
Sequence of biotinylated oligopeptide spanning one repeat unit of the TARP phosphodomain, first tyrosine phosphorylated (pY1) (Chlamydia trachomatis serovar L2) (Q6GX35 174-222): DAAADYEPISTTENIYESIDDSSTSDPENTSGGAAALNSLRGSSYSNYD

Sequence of biotinylated oligopeptide spanning one repeat unit of the TARP phosphodomain, second tyrosine phosphorylated (pY2) (Chlamydia trachomatis serovar L2) (Q6GX35 174-222): as above

In assay [1], “Vav2 (from UniProt P52735 1-878) (natural protein)” came in with a guanine nucleotide exchange activity towards His-Cdc42 of the pY2 oligopeptide precipitate from lysate supplemented with PI 3,4,5-P3 (32P label retained on filters) of 23000 CPM and a guanine nucleotide exchange activity towards His-Rac1 of the pY2 oligopeptide precipitate from lysate supplemented with PI 3,4,5-P3 (32P label retained on filters) of 31700 CPM. Also, in assay [2], the guanine nucleotide exchange activity towards His-Cdc42 of the pY1 oligopeptide precipitate from lysate supplemented with PI 3,4,5-P3 (32P label retained on filters) amounted to 28700 CPM and the guanine nucleotide exchange activity towards His-Rac1 of the pY1 oligopeptide precipitate from lysate supplemented with PI 3,4,5-P3 (32P label retained on filters) was determined as 51200 CPM.

“Sos1 (from UniProt Q07889 1-1333) (natural protein)” had a guanine nucleotide exchange activity towards His-Rac1 of the pY1 oligopeptide precipitate from regular HeLa lysate (32P label retained on filters) in assay [2] of 31000 CPM.
